# Source: the DeepSol protein solubility set
# Test: soluble on expression in E. coli; label from the status in PepcDB or PDB records
row,Sequence,soluble on expression in E. coli
1,MGSDKIHHHHHHMTSVSPHKKAKALKPTSRRPAKELCSECGLCDTYYIHYVKEACAFINQQIGELEVETHTRSRHLDNPDELYFGVHQDMIAARKQQPIEGAQWTGIVSSIAIEMLNRGLVEGVVCVQNTKEDRFQPMPIIARTPEEILAARVNKPTLSPNLSVLEQIEKSGMKRLLVIGVGCQIQALRAVEKQLGLEKLYVLGTPCVDNVNRAGLQKFLETTSRSPETVVHYEFMQDFRVHFKHEDGSSETVPFFGLKTNKLKDVFAPSCMSCFDYVNSLADLVVGYMGAPFGWQWIVVRNDTGKEMLDLVQDQLDTQPVTSKGNRKEAVQQSIPAYDKGVTLPMWAAKLMGVVIEKIGPKGLEYARFSIDSHFTRNYLYVKRNHPEKLEAHVPEFAKRIVEQYKLPE,not soluble
2,MSLKSYGAVKRISGKNRYVLSENIAKQMGSYDKAIVVTGRVFQDALAIAPYAAAHGYPILLTEKDKLPDYDLPKQVIIIGSSFSVSDSVENQIKKTSEGHHHHHH,soluble
3,MSPAWPLRPGQKVRVEFYKYPEEALHYFWEAEVVEVRPEGVLTLLPQGGVFHHVGKGRSLVLDHDAYVAFFPGAWYSGGPDVREGRVLEYYWNVQTPALWTGEAFRQYDLELDVKCRADHTCEVFDREEFLAKRPLYPRAWVEEAERAVEAVFRHMREGRWPVLPPGKPLPWMERI,soluble
4,MVPRTEIVAIEYGTPIEELKARFIESGISKIIVYKENIDNIIGYIHSSEMFREQTDWTKSVRQLPIAPETMGAHKLMKLFMQQKKSLAVVVDEFGGTSGIVALEDLVEEIFGEIEDEHDTTSYIA,not soluble
5,GSHMGRSQKVSQMTKVETRLEILDVTLRDGEQTRGVSFSTSEKLNIAKFLLQKLNVDRVEIASARVSKGELETVQKIMEWAATEQLTERIEILGFVDGNKTVDWIKDSGAKVLNLLTKGSLHHLEKQLGKTPKEFFTDVSFVIEYAIKSGLKINVYLEDWSNGFRNSPDYVKSLVEHLSKEHIERIFLPDTLGVLSPEETFQGVDSLIQKYPDIHFEFHGHNDYDLSVANSLQAIRAGVKGLHASINGLGERAGNTPLEALVTTIHDKSNSKTNINEIAITEASRLVEVFSGKRISANRPIVGEDVFTQTAGVHADGDKKGNLYANPILPERFGRKR,soluble
6,MDPLSAASKIAGSGLEVQSTRLRIVSENIANARSTGDTPGADPYRRKTVTFGSELDHVSGVERVKVKKLGVDRGDFVHEYDPGNPAADTNGMVKMPNVNVLIEMADMREANRSYDANLQVIRQTRDLVASTIDLLKASQ,not soluble
7,MDFRANLQRQVKPKTVSEEERKVHSPQQVDFRSVLAKKGTSKTPVPEKVPPPKPATPDFRSVLGGKKKLPAENGSSSAETLNAKAVESSKPLSNAQPSGPLKPVGNAKPAETLKPMGNAKPAETLKPMGNAKPDENLKSASKELKKDVKNDVNCKRGHAGTTDNEKRSESQGTAPAFKQKLQDVHVAEGKKLLLQCQVSSDPPATIIWTLNGKTLKTTKFIILSQEGSLCSVSIEKALPEDRGLYKCVAKNDAGQAECSCQVTVDDAPASENTKAPEMKSRRPKSSLPPVLGTESDATVKKKPAPKTPPKAAMPPQIIQFPEDQKVRAGESVELFGKVTGTQPITCTWMKFRKQIQESEHMKVENSENGSKLTILAARQEHCGCYTLLVENKLGSRQAQVNLTVVDKPDPPAGTPCASDIRSSSLTLSWYGSSYDGGSAVQSYSIEIWDSANKTWKELATCRSTSFNVQDLLPDHEYKFRVRAINVYGTSEPSQESELTTVGEKPEEPKDEVEVSDDDEKEPEVDYRTVTINTEQKVSDFYDIEERLGSGKFGQVFRLVEKKTRKVWAGKFFKAYSAKEKENIRQEISIMNCLHHPKLVQCVDAFEEKANIVMVLEIVSGGELFERIIDEDFELTERECIKYMRQISEGVEYIHKQGIVHLDLKPENIMCVNKTGTRIKLIDFGLARRLENAGSLKVLFGTPEFVAPEVINYEPIGYATDMWSIGVICYILVSGLSPFMGDNDNETLANVTSATWDFDDEAFDEISDDAKDFISNLLKKDMKNRLDCTQCLQHPWLMKDTKNMEAKKLSKDRMKKYMARRKWQKTGNAVRAIGRLSSMAMISGLSGRKSSTGSPTSPLNAEKLESEEDVSQAFLEAVAEEKPHVKPYFSKTIRDLEVVEGSAARFDCKIEGYPDPEVVWFKDDQSIRESRHFQIDYDEDGNCSLIISDVCGDDDAKYTCKAVNSLGEATCTAELIVETMEEGEGEGEEEEE,soluble
8,MNALTALSPLDGRYASKCDALRPFLSEFGLIHARVTVEVRWLQALSNHAGIIEVAPFSTETNAALDSIVANFSEDDANRIKEIERTTNHDVKAVEYFLKEKIAGLDELKNAGEFIHFACTSEDINNLSHALMLKNGREVLVSSMKQILNAIAALATTHAEQPMLSRTHGQTASPTTLGKEMANVAYRLARQIKQFENVELLGKINGAVGNYNAHLSAYPDIDWAAHSQAFVESLGLTFNPYTTQIEPHDYMAELFDALRRYNTILIDFNRDVWGYISLGYFKQKLKDGEVGSSTMPHKVNPIDFENSEGNLGIANAVLGHLGEKLPVSRWQRDLTDSTVLRNMGVGFAQSLIAFDACLKGIGKLELNAARLAEDLNQAQEVLAEPIQTVMRRYNVEKPYEKLKALTRGQAMTRDMMVNFVNGDELSQVPAEERARLAEMTPASYTGNAADQAKQINDLINKI,not soluble
9,MSLRAVRLHAKWDPRPEFKLGPKDIEGKLTWLGSKVWRYPEVRVEEVPEPRIEKPTEIIIKVKACGICGSDVHMAQTDEEGYILYPGLTGFPVTLGHEFSGVVVEAGPEAINRRTNKRFEIGEPVCAEEMLWCGHCRPCAEGFPNHCENLNELGFNVDGAFAEYVKVDAKYAWSLRELEGVYEGDRLFLAGSLVEPTSVAYNAVIVRGGGIRPGDNVVILGGGPIGLAAVAILKHAGASKVILSEPSEVRRNLAKELGADHVIDPTKENFVEAVLDYTNGLGAKLFLEATGVPQLVWPQIEEVIWRARGINATVAIVARADAKIPLTGEVFQVRRAQIVGSQGHSGHGTFPRVISLMASGMDMTKIISKTVSMEEIPEYIKRLQTDKSLVKVTMLNEGHHHHHH,soluble
10,EETLLNTKLETADLKWVTFPQVDGQWEELSGLDEEQHSVRTYEVCDVQRAPGQAHWLRTGWVPRRGAVHVYATLRFTMLECLSLPRAGRSCKETFTVFYYESDADTATALTPAWMENPYIKVDTVAAEHLTRKRPGAEATGKVNVKTLRLGPLSKAGFYLAFQDQGACMALLSLHLFYKK,soluble
11,MNNTVIACVDGSPSTRPVCEYAAWAAGKLGAPLALLHVLEKSETPAVSDLTGSIGIDSREQLTEALVRVEGERSRLLMAQGKAVLAGCAELLKQTGQPDAQLLQKHGALDEILAELGEVRLMVLGRRGTQNQVGSHLESVIRLQKNPVLIVPETFTPPARVMFAYDGSSESRKNLTRLTVSPLLHGLSCHIVMVNGDMSALQDAQAVLQEAGITTETRLLEDESVTGALCRYADAHDIDLTVMGACGHSRLRRFFIGSHTTEMLSESRQPLLMLR,not soluble
12,MAHHHHHHMFCNLNVCLAFLSSQYGKENMNARKPLAVSAGTNSRSGEGDWKSTMRSFREGVRCLGEENEALRTVRSDLDAISRKLTEKMNSLVEENGSFHKSMSTLLDDERRKVSIITDQNENLLHKLEELRKEYDDANKEISRLTDLVHTEKSRNNSVVGLFEKKLAEKEDEYQTELRLREQSLEKLKTQLEEKCSAYEAQLTDRDNLLQTERCQWKLQKEVYEKEIERLLSQVGKFAITQRSSSQQSTLGVDVAHAKPPLAPVPPPAPTDEEGDRAVVKKRRLEAVRQQRRLKENDKNDI,not soluble
13,MGSDKIHHHHHHMNIYDQLQAVEDRYEELGELLSDPDVVSDTKRFMELSREEANSRETVAVYREYKQVVQNIADAQEMIKDASGDPELEEMAKEELKNSKVAKEEYEEKLRFLLLPKDPNDDKNIILEIRGAAGGDEAALFAGDLLNMYQKYAENQGWKFEVMEASANGVGGLKEVVAMVSGQSVYSKLKYESGAHRVQRVPVTESQGRVHTSTATVLVMPEVEEVEYEIDPKDLRVDIYHASGAGGQNVNKVATAVRIIHLPTNIKVEMQEERTQQKNRDKAMKIIRARVADHFAQIAQDEQDAERKSTVGTGDRSERIRTYNFPQNRVTDHRIGLTLQKLDSILSGKLDEVIDALILYDQTQKLEELNK,soluble
14,MPYVERSNIVGLFGGSFNPPHEGHLLVAKTAIRRLRLNQLWWMVTPGNPLKDCTHLPPLEKRMRLSLELIDDPKIRVTGFEQAIGSKVSVETISHILAHYRRVHFVWIMGADSLATIHHWYRWHDIISMLPIAIIDRPLVHMSALSSSMAHIYRSFRLDERESIRLPFMKPPAWIYLHGALSFQSSTNLRLKENAFF,not soluble
15,MSKLLLVGEPLIRVSPNQFQPLTNACEAQLFFGGSEVNIARTLGGFGLEARLFTALPDNPVGHAFHQFLKQSGVDMSLTAWQGHRVGLYYLENGFGCRASQVYYDRCGSSFSALDKDSLDLAAIFEGISHFHFSGISLALGKKTQDLIEVLVREAKKRDICISFDLNFRSSMIAVADAKRLFSHFAQYADIIFGMEPLLLDSDDFDMFDRKKADTTTIRERLAGLYQRYQLQAIYHTERSNDAQGSNHFKAYAYDRQFYESCEVTTPVLQRVGSGDAFVAGLLYQLLEGNEKQRNLDFAVATASLKCTVAEDQLYHSVQQVEAVLANQRDIQR,not soluble
16,MPRPSAGSHHNDKLHFKKGDTVIVLSGKHKGQTGKVLLALPRDQKVVVEGVNVITKNVKPSMTNPQGGQEQRELALHASKVALVDPETGKATRVRKQIVDGKKVRVAVASGKTID,soluble
17,MGSDKIHHHHHHFVSIELKDRSLVNNQYKGKIKSANLSVDYEINQVMKDIDKLGLNTVNVPIIINVESINSDIMSIDNNSKEKAIKLIKKLNKKGISTILEAYPWIENGKLYETDWNPINKKRFFYTWQNAILNELIIDVANPLDVNVLNIGSNFVHLEEYQQNWGEIIDFVQSKFDGLVTYRTNWWYTKKDDLSSKLFYEQKLNNNFFDKLDFISIAAYFELSNKPVNTVDELISALHSSTVNNRGQNIKQEIYNLYKAHRKPIFFGELGFSNRESASSQPWNHTPSKAVNGEEQARCFEAYKKVFENEDWINGFSVFCVGKIDDEKNFYPSKESIKVIKSWYE,not soluble
18,MEVRGMDTIGHHYIVEAAGCDPNVIGDANKIREIFLEAAKRGNMEVKASYFFKFSPMGVSGVVIVAESHISVHTWPEKGYAALDVYTCGENADPEKAVDYILEQFKAQYAHVSEIKRGIEEEDRTFTHTILTWEERLDRRNGKP,soluble
19,MSLKYDLKYLSVPLPEEIQRVKEFGDFASADIAIDFWLTKELPQALKERLIIEKDVIKMMRMNEYPHSFAKADQMMRDTFQDYQTEELIRLKETGLVDWVYIDGEPYFQLRFLANLIKTNAAYVARLREAESNQLEILRKKELKENIEQMQKNGGRKVRTTIKATIQVKKEFERPGERVRVHLPLPKACQQQSEIEILATSPEATYIAAEDAPQRTLCFETILKENQTFTVEYCYVNRMVYQQLEENNVDKMQPSFDLEEQLPHIRFTPYLRNLADEIVGDESNPLKKARLIYDFVTTKIHYSFMREYFTISNISEYAATNLKGDCGVQAILFITLCRIAGIPAKWQSGLYVSTHYTGCHDWAQFYIKPYGWLFADLSFGGGAYRDGDRQRWNHYFGNLDVFRMVANSEIQADFQPAKMQLRADPIDNQRGEFEYENEGLPYACLIVSQERLSMEELPFDEGGSHHHHHH,soluble
